{
  "source": "paper PMC7081346",
  "about": "“Identification and characterization of N9-methyltransferase involved in converting caffeine into non-stimulatory theacrine in tea” (Nature Communications, 2020)",
  "key": {"[1]": {"biological_target": "T1, CkTbS (Camellia sinensis, UniProt A0A6C0WX00, H226R/T241I/S270C)", "T1 construct": "gene TBS; full-length, recombinant from E. coli BL21(DE3); N-terminal His6-SUMO tag cleaved with ULP1", "T1 sequence (A0A6C0WX00 whole entry H226R/T241I/S270C)": "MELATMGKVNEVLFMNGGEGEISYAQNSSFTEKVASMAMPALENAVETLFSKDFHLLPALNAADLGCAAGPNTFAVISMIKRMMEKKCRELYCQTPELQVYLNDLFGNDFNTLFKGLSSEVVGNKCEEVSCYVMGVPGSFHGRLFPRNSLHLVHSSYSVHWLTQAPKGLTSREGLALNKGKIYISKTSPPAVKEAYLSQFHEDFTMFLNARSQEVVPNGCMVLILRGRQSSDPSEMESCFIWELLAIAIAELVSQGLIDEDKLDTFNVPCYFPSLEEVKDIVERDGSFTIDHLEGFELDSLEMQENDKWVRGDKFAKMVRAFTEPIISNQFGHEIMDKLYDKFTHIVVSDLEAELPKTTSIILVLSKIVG", "assay": "in vitro methylation assay, HPLC", "format": "biochemical", "conditions": "SAM as methyl donor; triple mutant, composition from the three variable residues"}, "[2]": {"biological_target": "T2, CkTbS (Camellia sinensis, UniProt A0A6C0WX00, S270C)", "T2 construct": "gene TBS; full-length, recombinant from E. coli BL21(DE3); N-terminal His6-SUMO tag cleaved with ULP1", "T2 sequence (A0A6C0WX00 whole entry S270C)": "as the sequence (A0A6C0WX00 whole entry H226R/T241I/S270C) above, with R226H, I241T counted along it", "assay": "in vitro methylation assay, HPLC", "format": "biochemical", "conditions": "SAM as methyl donor; printed as C270S, but CkTbS residue 270 is Ser"}, "[3]": {"biological_target": "T3, CkTbS (Camellia sinensis, UniProt A0A6C0WX00, T241I)", "T3 construct": "gene TBS; full-length, recombinant from E. coli BL21(DE3); N-terminal His6-SUMO tag cleaved with ULP1", "T3 sequence (A0A6C0WX00 whole entry T241I)": "as the sequence (A0A6C0WX00 whole entry H226R/T241I/S270C) above, with R226H, C270S counted along it", "assay": "in vitro methylation assay, HPLC", "format": "biochemical", "conditions": "SAM as methyl donor"}, "[4]": {"substrate": "Cn1c(=O)c2c([nH]c(=O)n2C)n(C)c1=O", "assay": "theacrine formation by HPLC-MS", "format": "biochemical, Camellia sinensis", "conditions": "1.5 mM SAM, 200 μM MgCl2, 100 mM Tris-HCl pH 7.0, 27 °C"}, "[5]": {"biological_target": "the molecule itself", "assay": "crystal structure; CkTcS (eight N-terminal residues truncated) mixed with 2 mM SAH and 5 mM 1,3,7-trimethyluric acid; hanging drop, 4 °C, 0.1 M HEPES (pH 7.5), 1 M sodium citrate; 3.14 Å; homodimer in the crystal lattice"}, "[6]": {"substrate": "C[S+](CC[C@H](N)C(=O)O)C[C@H]1O[C@@H](n2cnc3c(N)ncnc32)[C@H](O)[C@@H]1O", "assay": "purified protein", "conditions": "50 μM 1,3,7-trimethyluric acid, 200 μM MgCl2, 100 mM Tris-HCl pH 7.0, 27 °C"}, "[7]": {"substrate": "Cn1cnc2[nH]c(=O)[nH]c(=O)c21", "assay": "theobromine formation by HPLC-MS", "format": "biochemical, Camellia sinensis", "conditions": "1.5 mM SAM, 200 μM MgCl2, 100 mM Tris-HCl pH 7.0, 27 °C"}},
  "data": [
    {"molecule": "Cn1c(=O)c2c([nH]c(=O)n2C)n(C)c1=O", "note": "[compound 5, 1,3,7-trimethyluric acid]", "values": [
      {"measurement": "in vitro methylation assay, HPLC", "setting": "[1]", "value": "the double and triple mutations further increased the N-methyltransferase activity"},
      {"measurement": "in vitro methylation assay, HPLC", "setting": "[2]", "value": "Single mutation of T241I or C270S on CkTbS led to a moderate increase"},
      {"measurement": "in vitro methylation assay, HPLC", "setting": "[3]", "value": "Single mutation of T241I or C270S on CkTbS led to a moderate increase"}
    ]},
    {"molecule": "CkCS (Camellia sinensis var. assamica) (protein, full-length, recombinant from E. coli BL21(DE3); N-terminal His6-SUMO tag cleaved with ULP1) MELATREKVNEVLFMNRGEGESSYAQNSSFTQQVASMAQPALENAVETLFSKDFHLQALNAADLGCAAGPNTFAVISTIKRMMEKKCRELNCQTLELQVYLNDLFGNDFNTLFKGLSSEVIGNKCEEVPCYVMGVPGSFHGRLFPRNSLHLVYSSYSVHWLTQAPKGLTSREGLALNKGKIYISKTSPPVVREAYLSQFHEDFTMFLNYRSQEMVPNGCMVLILRGRQCFDPSDMQSCFTWELLALAIAELVSQGLIDEDKLDTFNIPSYFASLEEVKDIVERDGSFTIDHIEGFDLDSVEMQENDKWVRGEKFTKVVRAFSEPIISSQFGHEIMDKLYDKFTHIVVSDLEAKLPKTTSIILVLSKIVG", "values": [
      {"measurement": "Km", "setting": "[4]", "value": "71.49 ± 15.60", "unit": "µM"},
      {"measurement": "kcat", "setting": "[4]", "value": "0.12 ± 0.01 ×10^-3 s^-1"}
    ]},
    {"molecule": "theacrine synthase CkTcS (N9-methyltransferase), N-terminal eight residues truncated (enzyme, Camellia assamica var. kucha (Kucha), UniProt A0A6C0WW36 9-370, looked up, CkTcS, theacrine synthase (N9-methyltransferase) of Camellia assamica var. kucha (Kucha); for crystallization eight residues on the N-terminal were truncated; source: E. coli BL21(DE3), purified (Nickel column, ion-exchange, size-exclusion); not shown: His6, N-terminal, cleaved; SUMO, N-terminal, cleaved) VKEVLFMNTGEGESSYVQNSSFTEKVASMAMPALENAVETLFSKDFHLFQAINAADLGCATGPNTFAVISTIKRMMEKKCRELNCQTLELQVYMNDLFGNDFNTLFKGLSSKVIGNKCEEVSCYVMGVPGSFHGRLFPRNSLHLVHSSYSVHWLTQAPKGLTSREGLALNKGRIYISKTSPPVVREAYLSQFHEDFTMFLNARSQEVVPNGCMVLILRGRQSSDPSDMQSCFIWELLAIAIAELVSQGLIDEDKLDTFNIPCYFPSLEEVKDIVERDGSFTIDHMEGFELDSLQMQENDKWVRGEKFAKIVRAFTEPIISNQFGHEIMDKLYDKFTHIVVSDLEAKLPKTTSIILVLSKIVG", "values": [
      {"measurement": "stoichiometry N", "setting": "[5]", "value": 2}
    ]},
    {"molecule": "CkTbS (Camellia sinensis var. assamica) (protein, full-length, recombinant from E. coli BL21(DE3); N-terminal His6-SUMO tag cleaved with ULP1) MELATMGKVNEVLFMNGGEGEISYAQNSSFTEKVASMAMPALENAVETLFSKDFHLLPALNAADLGCAAGPNTFAVISMIKRMMEKKCRELYCQTPELQVYLNDLFGNDFNTLFKGLSSEVVGNKCEEVSCYVMGVPGSFHGRLFPRNSLHLVHSSYSVHWLTQAPKGLTSREGLALNKGKIYISKTSPPAVKEAYLSQFHEDFTMFLNARSQEVVPNGCMVLILHGRQSSDPSEMESCFTWELLAIAIAELVSQGLIDEDKLDTFNVPSYFPSLEEVKDIVERDGSFTIDHLEGFELDSLEMQENDKWVRGDKFAKMVRAFTEPIISNQFGHEIMDKLYDKFTHIVVSDLEAELPKTTSIILVLSKIVG", "values": [
      {"measurement": "Km", "setting": "[4]", "value": "162.20 ± 27.80", "unit": "µM"},
      {"measurement": "kcat", "setting": "[4]", "value": "0.18 ± 0.01 ×10^-3 s^-1"}
    ]},
    {"molecule": "CkTcS (Camellia sinensis var. assamica) (protein, full-length, recombinant from E. coli BL21(DE3); N-terminal His6-SUMO tag cleaved with ULP1; homodimer) MELATRGKVKEVLFMNTGEGESSYVQNSSFTEKVASMAMPALENAVETLFSKDFHLFQAINAADLGCATGPNTFAVISTIKRMMEKKCRELNCQTLELQVYMNDLFGNDFNTLFKGLSSKVIGNKCEEVSCYVMGVPGSFHGRLFPRNSLHLVHSSYSVHWLTQAPKGLTSREGLALNKGRIYISKTSPPVVREAYLSQFHEDFTMFLNARSQEVVPNGCMVLILRGRQSSDPSDMQSCFIWELLAIAIAELVSQGLIDEDKLDTFNIPCYFPSLEEVKDIVERDGSFTIDHMEGFELDSLQMQENDKWVRGEKFAKIVRAFTEPIISNQFGHEIMDKLYDKFTHIVVSDLEAKLPKTTSIILVLSKIVG", "values": [
      {"measurement": "Km", "setting": "[6]", "value": 109.50, "unit": "µM"},
      {"measurement": "Km", "setting": "[4]", "value": "4.68 ± 0.72", "unit": "µM"},
      {"measurement": "kcat", "setting": "[4]", "value": "11.42 ± 0.37 ×10^-3 s^-1"},
      {"measurement": "Km", "setting": "[7]", "value": "226.20 ± 33.95", "unit": "µM"},
      {"measurement": "kcat", "setting": "[7]", "value": "6.07 ± 0.21 ×10^-3 s^-1"}
    ]}
  ]
}
